# ± gives the uncertainty stated by the source.
# Assay: amyloid nucleation score (Sup35N fusion, yeast selection) (log enrichment); library NNK1; higher = more nucleation; inactive = no reads after selection
# Summary of the method: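 Output and input plasmid inserts were sequenced by Illumina after psi-negative yeast carrying Sup35N fused to peptides of 20 random codons had been induced 24 hours with 100 μM copper sulfate and grown 7 days at 30°C on medium lacking adenine and uracil. The nucleation score is the DiMSum log enrichment of output over input reads, centred on the mode score of non-aggregating sequences. Sequences with under 100 input reads were excluded.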
row,Substance,amyloid nucleation score
1,SPPSSNIFPCI,0.052 ± 0.69
2,HAAEGIDESRKHSRHLIIVW,0.029 ± 0.34
3,ILLRSNIFMYFNMTEMPNSC,6.798 ± 0.055
4,YSHYNTIGLYILSKVSSMAV,inactive
5,LMSTVIVESVVIWGMAARVQ,2.62 ± 0.11
6,ILKEIMIGGRDRTDDWKSHG,-1.3 ± 0.8
7,KNFDHVKDHIVFQVL,-1.27 ± 1
8,EIVACSWKKELIRAW,-0.209 ± 0.38
9,CFRDGYSKLCGCYVSMRTGH,0.459 ± 0.53
10,NPGEWYNSYRSNGEGMRLYE,-0.288 ± 0.88
11,GEFVWKEASATCCSWGKLRR,0.425 ± 0.72
12,RRKESYYGSSTYVSTNYAL,-0.075 ± 0.68
13,AFMGPWEPFLVHFTRRPSPY,-0.856 ± 2.4
14,FTRDVYRWKYPNYLVKYSTP,-0.199 ± 0.85
15,TIRARMVCLNCQMVR,3.54 ± 0.079
16,LYIMLLLLLLTSQYT,-0.347 ± 0.63
17,MSSHVTHAS,0.495 ± 1
18,QIWTFRGRVLVGHTSREVVG,0.122 ± 0.24
19,VSANICNRIVDGHFSLFYLN,-0.73 ± 0.37
20,GRSLY,-0.413 ± 0.46
21,LWVRSKFRSC,-0.08 ± 1.1
22,TVSLGVAAVMFPR,0.95 ± 0.36
23,AVSSVVPGTCL,0.55 ± 0.68
24,DRWDFMQLNCIHLEA,0.885 ± 0.88
25,YFLLPYADRIHHLSVNCFWM,-0.008 ± 0.93
26,MPGLWVFASALTQQEGTLEM,-0.251 ± 0.79

row,Substance,amyloid nucleation score
1,RESGMTMHVVPQPLDTKTWC,0.612 ± 0.72
2,NGSADNIIVYGYDANLRWVR,0.262 ± 0.43
3,NSGNICSVGCGL,3.09 ± 0.2
4,FRSFKNTY,-1.3 ± 0.45
5,RYTFQFNYV,0.224 ± 0.38
6,RIYTYSNCVGLKLAFTFAYR,0.642 ± 0.36
7,LVMGMHYSLVV,0.125 ± 0.46
8,FYLLTGLFSQVGTLLFHWSR,-0.819 ± 0.51
9,PVVGRARRYRREAAENVVLD,0.943 ± 0.6
10,NPLVFRN,-0.122 ± 0.61
11,RFDSFAMVYDNMWVRCLNVR,-0.303 ± 0.53
12,LTLLA,-0.096 ± 1.7
13,LNSNPDCKTLFIHAWW,0.282 ± 1.2
14,MWGFWTFFDGLAYPFVMHKT,0.054 ± 0.53
15,PIWLTDKFGG,-0.24 ± 0.61
16,KDHNVGMYLAGENCHLG,0.915 ± 0.9
17,IFLYDRLNGDPFSSRW,0.729 ± 0.9
18,YKSLLGRAVMFKRHQPGPRA,0.248 ± 0.39
19,HMTLCRRGFISGQADYFVQ,0.275 ± 1.2
20,TVEYNRPFCRFIFCGSGYRH,-1.2 ± 0.92
21,GLDCVRGNQWVNQGVL,2.32 ± 0.15
22,LYIMGRLDFIFRWVTGGFDT,-0.838 ± 0.77
23,IVNFRVNRPSL,0.205 ± 0.31
24,EKLNFSNLEGFRGFRLKGSR,-0.271 ± 1.4
25,RVHQGLFDGNKAYQTGIHWN,0.041 ± 0.25
26,GGDRGHMFGMKSATVRWLAY,0.572 ± 0.45

row,Substance,amyloid nucleation score
1,EVAMVYFKCVLFITSDSKQR,-0.823 ± 1.1
2,LVFWRLCERHRWLRGFESA,-1.06 ± 1.5
3,RPTLDVIRNCRVDFAEKGGN,0.711 ± 0.35
4,TTMIRSYFREDYGQGPLMSW,0.51 ± 1.2
5,PGVPPPKRA,0.294 ± 0.66
6,SLIRIVSS,0.372 ± 0.52
7,WTMNLLA,-0.048 ± 0.16
8,TTLWLVPYVC,0.529 ± 0.58
9,FHLWHLIVYILALY,-0.955 ± 0.77
10,ICQTFASCEFDGCLLH,3.47 ± 0.12
11,IIASGHDFL,-0.732 ± 0.87
12,HLIDVTILGWDEVSIM,1.26 ± 0.37
13,SGKLLISCVYSLENMC,1.39 ± 0.72
14,LSHLRSLYKGCSYRMHSWMY,1.04 ± 0.58
15,TFFCTYTYLWLICIIGQYYF,3.44 ± 0.11
16,YDVLEDSHELMMCFCVRGHW,-0.155 ± 1
17,MSNRISLQQLDRCQDDFMA,0.034 ± 0.38
18,VCLLHNIVKGFARYINSHK,0.423 ± 0.5
19,EYVACVIEDFSVLNVVRQVD,-0.33 ± 0.21
20,SGAPYS,0.185 ± 0.34
21,RALAVSRMRAYPSLRGEYLN,0.076 ± 1.2
22,VNLNVFLRR,0.059 ± 0.45
23,MNTLYCWGKCGLVTSLVGLI,0.059 ± 0.73
24,CLNVYNLFMSLPGVAAPPMV,6.9 ± 0.085
25,SRGITRQFESHTCAEHRCGS,-0.252 ± 0.97
26,VTSWQIDKLPWASANSLFWL,0.334 ± 0.27

row,Substance,amyloid nucleation score
1,QYSCGSYYLERSGNVSRRKS,-0.084 ± 1.6
2,EDNWHLRVQ,0.088 ± 0.29
3,RIYRHIIVTGDNII,2.57 ± 0.56
4,ACFWYTL,0.024 ± 0.47
5,TDVMSHGSAETGWCFLMSAF,0.124 ± 0.7
6,TISSLLFI,-0.252 ± 0.47
7,ALRRIGSFVVHLDIRAVSQT,1.09 ± 0.5
8,NVHSYRSLRLDELVMKSMCE,2.66 ± 0.2
9,VRLCLVLLESDLLTGTVGIG,-1.02 ± 1.2
10,SLGVYGQGSGWMLVVNVWEV,1.97 ± 0.24
11,AVKEGWLFSQVVVERGWNL,-0.588 ± 0.63
12,GSELGIKRTLSLFICLWIIG,-0.731 ± 0.36
13,TVRCSMGYILYRWVHSRLGR,1.4 ± 0.48
14,GTYFSGIVVVFLVGVLAR,-0.207 ± 0.49
15,ISCQQSE,-1.57 ± 2.4
16,NIISEN,inactive
17,ITLRVLFFRGKVLFTSGIQE,0.71 ± 1.1
18,LTGYTAS,0.295 ± 0.37
19,LVMLRCAMTLCSIMLNYTPR,0.89 ± 0.39
20,CCGVDAFSSRESR,1.55 ± 0.41
21,ELKSPCNVSPIWSRSRQTST,0.216 ± 0.68
22,QTHEYGLPRMIR,0.884 ± 0.69
23,SGMCNIQPQTCQ,-0.351 ± 0.39
24,DHLVEQYDRGDAAFFRLVFV,inactive
25,DNRSFFWNL,2.22 ± 0.13
26,GGYWWQDRRHGPILYLVFWA,0.552 ± 0.34

row,Substance,amyloid nucleation score
1,CRFMSVICHTLFWTPLTFYY,0.592 ± 0.83
2,PMTPTCPLTNASTCPSTDRR,-0.644 ± 0.74
3,SMRRAI,-0.263 ± 1.4
4,SGYDDFWMTWTAKRVWHRAR,-0.436 ± 0.64
5,GETLEVWFFRRRVIRWR,inactive
6,AYCFNSTGLSRFCSKYLWSN,-0.478 ± 0.45
7,FVPVKFITIGSYVLHTGSLL,0.834 ± 0.73
8,KNDNAYCGWSWLLLTDSVHF,-0.836 ± 0.42
9,NSWQLFYLCSQLIRKSSTLC,0.029 ± 0.37
10,ILCTIFHRTCFLRFRILEHF,inactive
11,PVMSRPAARMMGDSCHWSNR,-0.585 ± 0.8
12,CFFDGICLDQERYVMNFRAF,0.104 ± 0.51
13,PGSKAWFGSLISCLTPWVLR,-0.563 ± 0.85
14,SLSAPLNTLVFVVYIQWWEM,0.321 ± 0.71
15,RIYKSWSFRTLRLPEC,2.25 ± 0.1
16,MDVIFGLMS,0.729 ± 0.51
17,GKLSDINCLYSSDSLGCLGL,0.815 ± 0.9
18,YKDIMHHVN,inactive
19,RLDYFLCITYMIDQDRWRIT,-0.254 ± 1.1
20,VAWSPLRSSKPGTLSTVGDT,0.83 ± 1.1
21,YQCYSFRVNFGGCWLAQHLL,4.64 ± 0.13
22,SKTGRGTLVMEVSRCEVYDF,0.027 ± 1.7
23,TVGSIQKAEYWIHGYMATVN,0.169 ± 0.29
24,AIDSVNMTTLRWM,0.292 ± 0.62
